Assay [1] has as its target Unlabeled Ub (from bovine red blood cells, Sigma-Aldrich) (bovine, UniProt P0CG53 1-76). Description: NMR titration.
Another assay has as its target 15N-labeled Ub (UniProt P0CG47 1-76). In words: NMR titration.

B1: TRABID AnkUBD (aa 245-339) (domain or fragment)
chain: LEVDFKKLKQIKNRMKKTDWLFLNACVGVVEGDLAAIEAYKSSGGDIARQLTADEVRLLNRPSAFDVGYTLVHLAIRFQRQDMLAILLTEVSQQA
In general, Kd refers to the equilibrium constant for the complex coming apart. B1: the binding result in assay [1] is listed as “binds”. Also, the Kd in the assay with 15N-labeled Ub came out at 134 ± 19 µM.

B2: TRABID AnkUBD H317A (domain or fragment)
chain: LEVDFKKLKQIKNRMKKTDWLFLNACVGVVEGDLAAIEAYKSSGGDIARQLTADEVRLLNRPSAFDVGYTLVALAIRFQRQDMLAILLTEVSQQA
In the assay with 15N-labeled Ub, B2 showed a Kd of over 1200 µM.

The record behind these values is article PMC5260945 (Nature structural & molecular biology, 2011).
